Entries after “also recorded” stand apart in the source; their conditions may differ.
Tests used:
[1] = tested on: thrombus formation / platelet deposition; experiment: Thrombus formation on collagen type I in stenosis channels (SRG versus constant shear); format: cell-based, human; conditions: for Thrombus formation: 15 minutes of blood flow
Source text: (§1) In-house designed PDMS microfluidic chips (FIG. 1A) contained channels of 52 µm height with a footprint of 300 µm x 46 mm (used in FIG. 1) or 300 µm x 17 mm. Selected channels incorporated a semi-circular stenotic section of various lengths (600 µm, 1000 µm or 2000 µm diameter), creating 80% lumen reduction. Chips were manufactured as previously reported (Westein et al. Proceedings of the National Academy of Sciences of the United States of America. 2013 Jan 22;110(4):1357-62). The produced PDMS chips were sealed with cover slips by hydrophobic interaction and coated with collagen by perfusion of collagen solution followed by static incubation at RT for at least 1 hr. Channels were rinsed with PBS and blocked with 2% BSA. Wall shear rates of the input flow for these microchannels were approximated from volumetric flow rates by using the equation, γ = 6Q/wh2. Herein, γ is the wall shear rate (s^-1), Q the volumetric flow rate (mls^-1), w the channel with (cm) and h the channel height (cm).
(§2) Citrated whole blood was incubated with DiOC6 (0.5 µg ml^-1) (Sigma-Aldrich Co, St. Louis, MO, USA) and drawn through microfluidic channels by a programmable syringe pump (Legato 130, KD Scientific, USA). Time-lapse z-stack images of platelet deposition were captured in multiple track, resonant scanning mode, using a Nikon A1R confocal microscope system. Platelet deposition was recorded over time (2 frames per minute) for up to 20 minutes and quantified in ImageJ using a Z-projection of the acquired signal.

VWF-platelet interaction = experiment: Platelet-VWF adhesion on collagen III in stenotic microfluidic channels (SRG versus constant shear); format: cell-based, human
Source text: as §1, §2
For experiments measuring rolling velocities, anti αllbβ3 antibody (abciximab; 20 µg ml^-1)-treated whole blood containing 0.5 µg ml^-1 DiOC6 was drawn over a collagen type III-coated surface. Where indicated, blood was incubated with 30 µM aspirin (Sigma Aldrich, USA) and 300 µM 2-MeSAMP (Sigma-Aldrich Co, St. Louis, MO, USA) prior to blood perfusion. 10 second video clips of rolling platelets were recorded in the green fluorescent channel using an Olympus IX81 microscope system. Platelet rolling velocities were calculated using Diatrack v3.04 large scale particle tracking software (Vallotton et al. Microsc Microanal. 2013 Apr;19(2):451-60).

VWF-A1 domain = molecular target: T1, VWF-A1 domain (Homo sapiens, UniProt P04275); experiment: BLItz bio-layer interferometry, immobilized VWF-A1 domain; format: binding; conditions: scFv-A1 20, 40 and 100 µg ml^-1
T1 construct: coated with purified full length VWF or isolated A1 domain
Description: (§3) Bio-layer Interferometry was performed on a BIItz System (Pall Forte Bio, USA). Protein-A biosensors were hydrated for 30 minutes in PBS-Tween (0.05%) and loaded with VWF-A1 domain (130 µg ml^-1). Remaining binding sites were blocked by exposure to a polyclonal mouse IgG for 5 min. Sequential adhesion of scFv-A1 at 0, 20, 40 and 100 µg ml^-1 was monitored for 5 min per concentration. Real time visualisation of binding interactions between scFv A1 and full length VWF/A1 domain was performed using the BLItz Pro software. Traces were manually baseline aligned and corrected for control binding (0 µg ml^-1 scFv-A1).

[2] = tested on: VWF-GPIbα bond strength (platelets rolling on VWF-collagen III); experiment: Platelet rolling velocity on collagen III bound VWF in stenotic or straight microfluidic channels; format: cell-based, human; conditions: scFv A1
Source text: as §1, with “Herein, γ is the wall shear rate (s^-1), Q the volumetric flow rate (mls^-1), w the channel with (cm) and h the channel height (cm).” left out
For experiments measuring rolling velocities, anti αllbβ3 antibody (abciximab; 20 µg ml^-1)-treated whole blood containing 0.5 µg ml^-1 DiOC6 was drawn over a collagen type III-coated surface. […] 10 second video clips of rolling platelets were recorded in the green fluorescent channel using an Olympus IX81 microscope system. Platelet rolling velocities were calculated using Diatrack v3.04 large scale particle tracking software (Vallotton et al. Microsc Microanal. 2013 Apr;19(2):451-60).

VWF = VWF (Homo sapiens, UniProt P04275); experiment: VWF binding in the presence or absence of ristocetin (FIG. 7)
isolated VWF A1 domain = molecular target: T2, isolated VWF A1 domain (Homo sapiens, UniProt P04275); experiment: ELISA binding to isolated VWF A1 domain; conditions: scFv A1 5 µg ml^-1
T2 construct: coated with purified full length VWF or isolated A1 domain
Description: (§4) ELISA wells (Thermo Fisher Scientific) were coated with purified full length VWF or isolated A1 domain at 0.1, 1 and 10 µg ml^-1 in the presence of ristocetin (0.75 mg ml^1) and blocked with 2% BSA. Next, the coated wells were incubated with 5 µg ml^-1 of scFv A1 or sheep anti-VWF antibody followed by incubation with an HRP-conjugated secondary antibody (Anti-his HRP for scFv A1, Donkey anti-sheep HRP antibody for sheep anti-VWF antibody) (1:4,000). Readings were measured at 450 nm on a BMG Optima multi-well reader.

full length VWF = molecular target: T3, full length VWF (Homo sapiens, UniProt P04275); experiment: ELISA binding to immobilized full length VWF; conditions: scFv A1 5 µg ml^-1; ristocetin 0.75 mg ml^-1
T3 construct: coated with purified full length VWF or isolated A1 domain
Description: as §4

VWF-full length = molecular target: T4, VWF-full length (Homo sapiens, UniProt P04275); experiment: BLItz bio-layer interferometry, immobilized full length VWF; conditions: BLItz binding assay
T4 construct: coated with purified full length VWF or isolated A1 domain
Description: as §3

[3] = tested on: platelet aggregation / thrombus formation; experiment: Progressive shear gradient flow model: whole blood over collagen type I patches in straight channels; format: cell-based, human; conditions: scFv A1 5 µg ml^-1, 1,000 s^-1
Source text: Fluid dynamics were simulated with a COMSOL Multiphysics 4.2 laminar flow module applied to three-dimensional meshes. For all simulations, no-slip boundary conditions and Newtonian fluids were assumed. To obtain meshes from the plain channel geometries, channel dimensions were taken from the original computer-aided design (CAD) files and reconstructed in COMSOL. To obtain meshes from platelet aggregate geometries, confocal fluorescence microscopy image z-stacks of labeled platelets were processed in ImageJ. Each image in a z-stack was converted into a binary image by thresholding, and an x-y heightmap was constructed by summing all binary data in a z-stack followed by multiplying the result with the height of the original z-stack as documented by the confocal microscope. […] Input flow parameters were set based on pump settings as used in the experiments, and were adjusted to account for the reduced width of the fluorescence aggregate meshes compared to the full channel geometries. […]
Citrated whole blood was incubated with DiOC6 (0.5 µg ml^-1) (Sigma-Aldrich Co, St. Louis, MO, USA) and drawn through microfluidic channels by a programmable syringe pump (Legato 130, KD Scientific, USA). […] Platelet deposition was recorded over time (2 frames per minute) for up to 20 minutes and quantified in ImageJ using a Z-projection of the acquired signal.

B1: scFv A1: single chain antibody combining variable heavy chain of mAb CR1 with variable light chain of mAb CR2; VH SEQ ID NO: 11, VL SEQ ID NO: 10 (antibody, V domains shown)
VH: QVQLQQPGAELVRPGASVKLSCKASGYSFTNYWMSWVKQRPGQGLEWIGMIHPSDSDTRLNQKFKDKATLTVDKSSSTAYMQLSSPTSEDSAGLLLCKKFEGWLPVLLGPRHHSHSLLS
VL: DIELTQSPASLAVSLGQSYRASCKSVSTSGYSYMHWNQQKPGQPPRLLIYLVSNLESGVPARFSGSGSGTDFTLNIHPVEEEDAATYYCQHIRELTRSEGDQAEINR
modifications: scFv linker; Mouse
[1]; 2000 s^-1 constant shear
  Thrombus formation: no effect
[1]; SRGs (187-1,500 s^-1)
  Thrombus formation: inhibited thrombus formation
[1]; SRGs (300-2,000 s^-1)
  Thrombus formation: inhibited thrombus formation
[1]; scFv A1 2.5 µg ml^-1
  Inhibition of thrombus formation: absent
[1]; scFv A1 5 µg ml^-1
  Inhibition of thrombus formation: showed inhibition
[1]; scFv A1 5 µg ml^-1, SRG, 1,500 s^-1 in stenosis apex, control 1.58±0.22, p<0.001
  Relative thrombus growth (ratio of intensity in the last frame over the first frame): 1.2±0.09
[1]; scFv A1 5 µg ml^-1, SRG, 2,000 s^-1 in stenosis apex, control 1.85±0.28, p<0.0001
  Relative thrombus growth (ratio of intensity in the last frame over the first frame): 1.17±0.07
[1]; scFv A1 5 µg ml^-1, constant shear 1,500 s^-1, 10 minutes, other value of the pair 1.48±0.16
  Relative thrombus growth (ratio of intensity in the last frame over the first frame): 1.62±0.2
[1]; scFv A1 5 µg ml^-1, constant shear 2,000 s^-1, 10 minutes, other value of the pair 2.11±0.23
  Relative thrombus growth (ratio of intensity in the last frame over the first frame): 1.9±0.36
[1]; scFv A1 5 µg ml^-1, constant shear, straight channel sections
  Effect on platelet deposition: no effect
[1]; scFv A1 10 µg ml^-1
  Inhibition of thrombus formation: showed inhibition
VWF-platelet interaction; scFv A1 5 µg ml^-1, stenosis apex, control 3934±892, p=0.7932
  Platelet adhesion: 3805±783 platelets/mm^2
VWF-platelet interaction; scFv A1 5 µg ml^-1, stenosis inlet, control 6187±1097, p=0.0013
  Platelet-VWF adhesion: 5158±1032 platelets/mm^2
VWF-platelet interaction; scFv A1 5 µg ml^-1, stenosis outlet, control 5042±1167, p=0.07
  Platelet adhesion: 4475±1199 platelets/mm^2
VWF-platelet interaction; scFv A1 5 µg ml^-1, straight section, constant shear, control 2047±232, p=0.0195
  Platelet deposition: 3096±690 platelets/mm^2
VWF-platelet interaction; scFv A1, areas of SRGs and constant shear
  Relative amount of VWF per platelet deposited on aggregates: not reduced
VWF-A1 domain
  Binding to immobilized VWF-A1 domain: did not observe any binding
[2]; areas other than the stenosis apex
  Effect on platelet rolling velocities: largely unaffected
[2]; stenosis apex, control 4.41±0.1, p=0.038
  Platelet rolling velocity: 4.6±0.1 µm s^-1
VWF
  Mechanism of VWF binding (dependence on conformation): conformational-dependent binding
Isolated VWF A1 domain
  Binding to isolated VWF A1 domain: did not bind
Full length VWF
  Binding to immobilized full length VWF: did not bind
VWF-full length
  Binding to immobilized VWF-full length: did not observe any binding
[3]; constant shear, SRGs absent
  Platelet aggregation in the rear area of the collagen patch: did not reduce; also recorded: not at the rear
[3]; local shear gradient
  Platelet aggregation at the front area of the collagen patch: selectively attenuated; also recorded: inhibited platelet aggregation only at the front of the patch
